How the values were obtained:
human IGF-II [1] = molecular target: T1, human IGF-II (human, UniProt P01344 25-91); test: ELISA, hIGF-II coated on the plate
T1 construct: mature; It was biotinylated for the flow cytometry assays; also called hIGF-II; insulin-like growth factor II
Procedure: The half-maximal binding (EC₅₀) was calculated by fitting the data to the Langmuir adsorption isotherm.
(§1) ELISA was performed as described previously (Chen et al., 2008, supra). Bound Fabs and eAds were detected by HRP-conjugated mouse anti-FLAG tag antibody. The antibody-Fc fusion proteins binding to IGF-II directly coated on 96-well plates were detected by HRP-conjugated goat anti-human IgG (Fc-specific) antibody. […] The half-maximal binding (EC₅₀) was calculated by fitting the data to the Langmuir adsorption isotherm.

human IGF-II [2] = molecular target: T1, human IGF-II; test: SPR, Biacore X100, antibody amine-coupled to a CM5 chip, hIGF-II as analyte, monovalent binding model
Procedure: ELISA was performed by coating IGF-II on 96-well plates. Bound antibodies were detected by HRP-conjugated goat anti-human IgG (Fc-specific) antibody. SPR analysis was performed on Biacore X100 by according to the manufacturer's instructions.
The binding kinetics of the antibodies was assessed by SPR analysis on Biacore X100 (GE Healthcare) according to the manufacturer's instructions. Briefly, antibodies were diluted in sodium acetate (pH 5.0) and immobilized directly onto a CM5 sensor chip with standard amine coupling method. The reference cell was injected with N-hydroxysuccinimide/1-ethyl-3-(3-dimethyaminopropy) carbodiimide and ethanolamine without injection of IGF-II. IGF-II was diluted with running buffer HBS-EP (100 mM HEPES, pH 7.4, 1.5 M NaCl, 30 mM EDTA, 0.5% surfactant 20). […] The kinetic constants were calculated from the sensorgrams fitted with the monovalent binding model of the BiacoreX100 Evaluation software 2.0.

human IGF-II [3] = molecular target: T1, human IGF-II; test: ELISA, Fab on hIGF-II
human IGF-II [4] = molecular target: T1, human IGF-II; test: ELISA on hIGF-II
Procedure: as §1

mouse IGF-II = molecular target: T2, mouse IGF-II (mouse, UniProt P09535 25-91); test: ELISA-based competition assay
T2 construct: also called mIGF-II
T2 sequence (P09535 25-91 limits assumed): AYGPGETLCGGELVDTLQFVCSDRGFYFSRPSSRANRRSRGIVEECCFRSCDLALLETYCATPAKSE

human IGF-II [5] = molecular target: T1, human IGF-II; test: phage library panned on hIGF-II, semELISA screening
Procedure: The PCR products were gel-purified, digested with SfiI, and gel-purified again. The purified fragments were then cloned into pComb3X linearized by SfiI. A phage library was prepared by electroporation of Escherichia coli (E. coli) strain TG1 electroporation-competent cells (Stratagene, La Jolla, Calif.) with desalted and concentrated ligation, as described previously (Chen et al., 2008, J Mol Biol 382:779-89).

human IGF-II [6] = molecular target: T1, human IGF-II; test: ELISA, eAd on hIGF-II
Procedure: as §1

T1 sequence (P01344 25-91): as the sequence (P09535 25-91 limits assumed) above, with G3R, G5S, S22G, S32A, A35V, N36S counted along it

B1: m660 (bispecific antibody, human IgG1, kappa)
heavy: not shown
light: QVQLVQSGGGLVQPGGSLRLSCAASSFDFDYYEMSWVRQAPGQRLEWVAYISKSGGTKMYADSVKGRFTISRDNSKNTLYLQMNTLRAEDTAMYYCAKDRATCRGGRCYSFYYGMDVWGQGTLVTVSSGGGGSGGGGSGGGGSRTVAAPSVFIFPPSDEQLKSGTASVVCLLNNFYPREAKVQWKVDNALQSGNSQESVTEQDSKDSTYSLSSTLTLSKADYEKHKVYACEVTHQGLSSPVTKSFNRGEC
notes: Produced in 293 free style cells; also called bispecific antibody m660
fold lower EC50 than IgG1 m610.7 (human IGF-II [1]): 3 fold
Kd (human IGF-II [2]): 0.136 nM

B2: Fab m610.27 (Fab, V domains shown)
VH: QVQLVQSGAEVKKPGASVKVSCKASGYTFTSYYMHWVRQAPGQGLEWMGIINPSGGSTSYAQKFQGRVTMTRDTSTSTVYMELSRLRSDDTAVYYCARDVQWLAYGMDVWGQGTTVTVSS
VL: DIQMTQSPSSLSASVGDRVTITCRASQSISSYLNWYQQKPGRAPDLLINAASSLQSGVPSRFSGSGSGTDFTLTISSLQPEDFATYFCQQSYSLPFTFGGGTKVEIKG
notes: Human Fab expressed in E. coli HB2151; also called m610.27 in Fab format
EC50 (human IGF-II [3]): 5 nM

B3: m610 (Fab, V domains shown)
VH: QVQLVQSGAEVKKPGASVKVSCKASGYTFTSYYMHWVRQAPGQGLEWMGIINPSGGSTSYAQKFQGRVTMTRDTSTSTVYMELSRLRSDDTAVYYCARDVQWLAYGMDVWGQGTTVTVSS
VL: not shown
notes: also called Fab m610
EC50 (human IGF-II [4]): 20 nM
binding result (mouse IGF-II): binds

B4: eAd m630.9 (VHH)
VHH: QVQLVQSGGGLVQPGGSLRLSCAASSFDFDYYEMSWVRQAPGQRLEWVAYISKSGGTKMYADSVKGRFTISRDNSKNTLYLQMNTLRAEDTAMYYCAKDRATCSGGRCYSFYYGMDVWGQGTLVTVSS
notes: Mutant of m630 selected from the random mutagenesis library panned on hIGF-II; not shown: C-terminal hexahistidine tag, and a FLAG tag used for detection
binding result (human IGF-II [5]): binds

B5: eAd m630.1 (VHH)
VHH: QVQLVQSGGGLVQPGGSLRLSCAASSFDFDYYEMSWVRQAPGQRLEWVAYISKSGGTKMYADSVKGRFTISRDNSRNTLYLQMNTLRAEDTAMYYCAKDRATCRGGSCYSFYHGMDVWGQGTLVTVSS
notes: as for B4
binding result (human IGF-II [5]): binds

B6: eAd m630.3 (VHH)
VHH: QVQLVQSGGGLVQPGGSLRLSCAASSFDFDYYEMSWVRQAPGQRLEWVAYISKSGGTKMYADSVKGRFTISRDNSKNTLYLQMNTLRAEDTAMYYCAKDRATCRGGRCYSFYYGMDVWGQGTLVTVSS
notes: not shown: C-terminal hexahistidine tag, and a FLAG tag used for detection
EC50 (human IGF-II [6]): 2 nM
fold lower EC50 than m630 (human IGF-II [6]): 25 fold

B7: eAd m630.4 (VHH)
VHH: QVQLVQSGGGLVQPGGSLRLSCAASSFDFGYYEMSWVRQAPGQRLEWVAYISKSGGTKMYADSVKGRFTISRDNSKNTLYLQMNTLRAEDTAMYYCAKDRATCSGGRCYSFYYGMDVWGQGTLVTVSS
notes: as for B4
binding result (human IGF-II [5]): binds

B8: eAd m630 (VHH)
VHH: QVQLVQSGGGLVQPGGSLRLSCAASSFDFDYYEMSWVRQAPGQRLEWVAYISKSGGTKMYADSVKGRFTISRDNSKNTLYLQMNTLRAEDTAMYYCAKDRATCSGGSCYSFYYGMDVWGQGTLVTVSS
notes: Human engineered antibody domain (a single VH domain) expressed in E. coli HB2151; not shown: C-terminal hexahistidine tag, and a FLAG tag used for detection
EC50 (human IGF-II [6]): 50 nM
binding result (mouse IGF-II): binds

Source: patent US20140271646A1 (UNITED STATES OF AMERICA AS REPRESENTED BY THE SECRETARY …, published 2014)
